Laboratory results as given in patent US20080058263A1 (published 2008).

Experiments:
Assay in all cases: receptor-Fc IP
[1] = target: T1, VEGFR-1-Fc (UniProt P17948 27-338)
T1 construct: domain: first three Ig domains; expressed in Drosophila S2 cells, purified on Protein A sepharose; also called VEGFR-1-Fc fusion protein; not shown: Fc fragment from the Signal-pIgPlus vector
Outline: (§1)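 fusion protein at 400 ng/ml in an IP mix (PBS, 1.5% BSA, 0.06% Tween 20, 3 μg/ml heparin) was combined with sample supernatant at a 1:2 ratio. Bound ligand captured by immunoprecipitation with pentahistidine antibody.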

[2] = target: T2, VEGFR-2-Fc (UniProt P35968 20-322)
T2 construct: domain: first 3 Ig domains; conditioned supernatant of 293T cells; also called VEGFR-2-Fc fusion protein; not shown: Fc fragment of the pIg vector
Outline: as §1

[3] = target: T3, VEGFR-3-Fc (UniProt P35916 25-328)
T3 construct: domain: first three Ig domains; conditioned supernatant of 293T cells; also called VEGFR-3-Fc fusion protein; not shown: Fc fragment of the pIg vector
T3 sequence (looked up): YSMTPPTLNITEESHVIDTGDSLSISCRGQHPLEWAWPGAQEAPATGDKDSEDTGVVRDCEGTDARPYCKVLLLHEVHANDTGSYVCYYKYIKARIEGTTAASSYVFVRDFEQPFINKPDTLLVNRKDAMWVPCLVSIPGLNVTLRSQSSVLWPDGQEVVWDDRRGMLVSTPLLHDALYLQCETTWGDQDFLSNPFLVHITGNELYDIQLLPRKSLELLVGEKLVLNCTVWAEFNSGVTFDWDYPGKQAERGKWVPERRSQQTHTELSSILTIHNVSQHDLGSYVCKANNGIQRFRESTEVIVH
Outline: as §1

T1 sequence (P17948 27-338): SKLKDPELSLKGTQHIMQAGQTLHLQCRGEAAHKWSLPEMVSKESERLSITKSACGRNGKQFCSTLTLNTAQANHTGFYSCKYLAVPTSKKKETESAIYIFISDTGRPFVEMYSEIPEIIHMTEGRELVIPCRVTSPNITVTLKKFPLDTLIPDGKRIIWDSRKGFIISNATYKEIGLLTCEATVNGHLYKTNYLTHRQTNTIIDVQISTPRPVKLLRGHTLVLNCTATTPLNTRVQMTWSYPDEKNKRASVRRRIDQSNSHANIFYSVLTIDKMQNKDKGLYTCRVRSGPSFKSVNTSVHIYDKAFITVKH
T2 sequence (P35968 20-322): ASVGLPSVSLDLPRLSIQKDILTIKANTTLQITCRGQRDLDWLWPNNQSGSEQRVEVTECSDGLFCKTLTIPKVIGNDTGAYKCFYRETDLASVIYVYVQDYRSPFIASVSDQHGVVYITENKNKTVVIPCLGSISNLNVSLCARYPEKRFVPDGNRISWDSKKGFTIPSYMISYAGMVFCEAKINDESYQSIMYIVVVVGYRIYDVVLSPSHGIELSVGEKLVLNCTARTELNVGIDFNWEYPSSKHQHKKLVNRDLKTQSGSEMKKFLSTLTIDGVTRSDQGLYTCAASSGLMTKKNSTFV

Row | Binder | binding result [1] | binding result [2] | binding result [3]
1 | 12-3 (ligand) GQNHHEVVKFMDVYQRSYCHPIETLVDIFQEFGVATNTFFKPPCVSVYRCGGCCNSEGLQCVPTEESNITMQIMRIKPHQGQHIGEMSFLQHNKCECRPKKDLVFEQKLISEEDLNSAVDHHHHHH | binds | binds | no binding
2 | 12-7 (ligand, also called super-VEGF) GQNHHEVVKFMDVYQRSYCHPIETLVDIFQEFGVATNTFFKPPCVSVYRCGGCCNSEGLQCVPTEESNITMQIMRIKPHQGQHIGEMSFANHTSCRCMSKLDLVFEQKLISEEDLNSAVDHHHHHH | binds | binds | binds
3 | 23-6 (ligand) AHYNTEILKSIDNEWRKTQCMPREVCIDVGKEYPDEIEYIFKPPCVSVYRCGGCCNDEGLECMNTSTSYLSKTLFEIKPHQGQHIGEMSFANHTSCRCMSKLD | no binding | no binding | no binding
4 | 24-6 (ligand) AHYNTEILKSIDNEWRKTQCMPREVCIDVGKEFGVATNTFFKPSCVPLMRCGGCCNDEGLECMNTSTSYLSKTLFEIKPHQGQHIGEMSFANHTSCRCMSKLD | no binding | no binding | no binding
5 | 23-4 (ligand) AHYNTEILKSIDNEWRKTQCMPREVCIDVGKEYPDEIEYIFKPPCVSVYRCGGCCNSEGLQCMNTSTSYLSKTLFEIKPHQGQHIGEMSFLQHNKCECRPKKD | no binding | no binding | no binding
6 | 51-6 (ligand) AHYNTEILKSIDNEWRKTQCMPIETLVDIFQEYPDEIEYIFKPSCVPLMRCGGCCNDEGLECMNTSTSYLSKTLFEIKPHQGQHIGEMSFANHTSCRCMSKLD | no binding | no binding | no binding
7 | 73-6 (ligand) GQNHHEVVKSIDNEWRKTQCMPREVCIDVGKEYPDEIEYIFKPPCVSVYRCGGCCNDEGLECMNTSTSYLSKTLFEIKPHQGQHIGEMSFANHTSCRCMSKLD | no binding | no binding | no binding
8 | 22-6 (ligand) AHYNTEILKSIDNEWRKTQCMPREVCIDVGKEFGVATNTFFKPPCVSVYRCGGCCNDEGLECMNTSTSYLSKTLFEIKPHQGQHIGEMSFANHTSCRCMSKLD | no binding | binds | binds
9 | 71-6 (ligand) GQNHHEVVKSIDNEWRKTQCMPREVCIDVGKEYPDEIEYIFKPSCVPLMRCGGCCNDEGLECMNTSTSYLSKTLFEIKPHQGQHIGEMSFANHTSCRCMSKLD | no binding | no binding | no binding
10 | 53-6 (ligand) AHYNTEILKSIDNEWRKTQCMPIETLVDIFQEYPDEIEYIFKPPCVSVYRCGGCCNDEGLECMNTSTSYLSKTLFEIKPHQGQHIGEMSFANHTSCRCMSKLD | no binding | no binding | no binding
11 | 23-8 (ligand) AHYNTEILKSIDNEWRKTQCMPREVCIDVGKEYPDEIEYIFKPPCVSVYRCGGCCNSEGLQCMNTSTSYLSKTLFEIKPHQGQHIGEMSFANHTSCRCMSKLD | no binding | no binding | no binding
12 | 21-6 (ligand) AHYNTEILKSIDNEWRKTQCMPREVCIDVGKEYPDEIEYIFKPSCVPLMRCGGCCNDEGLECMNTSTSYLSKTLFEIKPHQGQHIGEMSFANHTSCRCMSKLD | no binding | no binding | no binding
13 | 21-2 (ligand) AHYNTEILKSIDNEWRKTQCMPREVCIDVGKEYPDEIEYIFKPSCVPLMRCGGCCNDEGLECMNTSTSYLSKTLFEIKPHQGQHIGEMSFLQHNKCECRPKKD | no binding | no binding | no binding
14 | 53-8 (ligand) AHYNTEILKSIDNEWRKTQCMPIETLVDIFQEYPDEIEYIFKPPCVSVYRCGGCCNSEGLQCMNTSTSYLSKTLFEIKPHQGQHIGEMSFANHTSCRCMSKLD | no binding | no binding | no binding
15 | 21-8 (ligand) AHYNTEILKSIDNEWRKTQCMPREVCIDVGKEYPDEIEYIFKPSCVPLMRCGGCCNSEGLQCMNTSTSYLSKTLFEIKPHQGQHIGEMSFANHTSCRCMSKLD | no binding | no binding | no binding
16 | 73-8 (ligand) GQNHHEVVKSIDNEWRKTQCMPREVCIDVGKEYPDEIEYIFKPPCVSVYRCGGCCNSEGLQCMNTSTSYLSKTLFEIKPHQGQHIGEMSFANHTSCRCMSKLD | no binding | no binding | no binding
17 | 23-2 (ligand) AHYNTEILKSIDNEWRKTQCMPREVCIDVGKEYPDEIEYIFKPPCVSVYRCGGCCNDEGLECMNTSTSYLSKTLFEIKPHQGQHIGEMSFLQHNKCECRPKKD | no binding | no binding | no binding
18 | 22-8 (ligand) AHYNTEILKSIDNEWRKTQCMPREVCIDVGKEFGVATNTFFKPPCVSVYRCGGCCNSEGLQCMNTSTSYLSKTLFEIKPHQGQHIGEMSFANHTSCRCMSKLD | no binding | binds | binds
19 | 12-9 (ligand) GQNHHEVVKFMDVYQRSYCHPIETLVDIFQEFGVATNTFFKPPCVSVYRCGGCCNDEGLECVPTEESNITMQIMRITVPLSQGPKPVTISFLQHNKCECRPKKDLVFEQKLISEEDLNSAVDHHHHHH | binds | no binding | binds
20 | 12-11 (ligand, also called super-VEGF) GQNHHEVVKFMDVYQRSYCHPIETLVDIFQEFGVATNTFFKPPCVSVYRCGGCCNSEGLQCVPTEESNITMQIMRITVPLSQGPKPVTISFLQHNKCECRPKKDLVFEQKLISEEDLNSAVDHHHHHH | binds | binds | binds
21 | 12-15 (ligand) GQNHHEVVKFMDVYQRSYCHPIETLVDIFQEFGVATNTFFKPPCVSVYRCGGCCNSEGLQCVPTEESNITMQIMRITVPLSQGPKPVTISFANHTSCRCMSKLDLVFEQKLISEEDLNSAVDHHHHHH | no binding | binds | binds
22 | 12-13 (ligand, clone acquired a point mutation, Asp to Asn at the last C-terminal amino acid of the hybrid) GQNHHEVVKFMDVYQRSYCHPIETLVDIFQEFGVATNTFFKPPCVSVYRCGGCCNDEGLECVPTEESNITMQIMRITVPLSQGPKPVTISFANHTSCRCMSKLNLVFEQKLISEEDLNSAVDHHHHHH | binds | no binding | binds
23 | 63-15 (ligand) GQNHHEVVKFMDVYQRSYCHPREVCIDVGKEYPDEIEYIFKPPCVSVYRCGGCCNSEGLQCVPTEESNITMQIMRITVPLSQGPKPVTISFANHTSCRCMSKLD | no binding | no binding | no binding
24 | 64-15 (ligand) GQNHHEVVKFMDVYQRSYCHPREVCIDVGKEFGVATNTFFKPSCVPLMRCGGCCNSEGLQCVPTEESNITMQIMRITVPLSQGPKPVTISFANHTSCRCMSKLD | no binding | no binding | no binding
25 | 64-13 (ligand) GQNHHEVVKFMDVYQRSYCHPREVCIDVGKEFGVATNTFFKPSCVPLMRCGGCCNDEGLECVPTEESNITMQIMRITVPLSQGPKPVTISFANHTSCRCMSKLD | no binding | no binding | no binding
